Earlier results as cited in US20190351024A1, “IMMUNOCYTOKINES WITH PROGRESSIVE ACTIVATION MECHANISM” (PHILOGEN S.p.A., priority 2016, published 2019).

Conditions: past clinical trials; cited from earlier work

TNF-α
maximum tolerated dose: 150-300 μg/m^2/day
